Results published in patent US10781262B2, “Combination therapy of T cell activating bispecific antigen binding molecules and PD-1 axis binding antagonists” (Hoffmann-La Roche Inc., priority 2014, dated 2020).

Legend:
[1] = system: erythrocytes
[2] = system: huFolR1-Fc; test: SPR epitope binning; type: binding, human; conditions: label = immobilized binder; 500 nM; also: key: + means binding; − means no binding; +/− means weak binding
Experimental: 500 nM huFolR1-Fc was then captured for 60 s, followed by 500 nM of the different binders for 30 s. The surface was regenerated with two injections of 10 mM glycine pH 2 for 30 s each.

[3] = molecular target: T1, human Folate Receptor 1 (FolR1-Fc) (Homo sapiens, UniProt P15328); test: SPR avidity to Folate Receptor 1 (bivalent binding); conditions: bivalent binding (avidity), ligand huFolR1
T1 construct: the extracellular domain of the antigen linked to the hinge region of Fc-knob; made in house; host or cells: HEK293 EBNA
Excerpt: The immobilization level was about 300-400 RU. […] The dissociation was monitored for 600 seconds.

[4] = molecular target: human Folate Receptor 1 Fc fusion (Homo sapiens, UniProt P15328); conditions: monovalent binding (affinity), analyte huFolR1
Experimental: (§1) Binding of FolR1 binders as IgG or in the T-cell bispecific format to different recombinant folate receptors (human FolR1, 2 and 3, murine FolR1 and cynomolgus FolR1; all as Fc fusions) was assessed by surface plasmon resonance (SPR). All SPR experiments were performed on a Biacore T200 at 25° C. with HBS-EP as running buffer (0.01 M HEPES pH 7.4, 0.15 M NaCl, 3 mM EDTA, 0.005% Surfactant P20, Biacore, Freiburg/Germany).
(§2) For affinity measurement, direct coupling of around 6000-7000 resonance units (RU) of the anti-human Fab specific antibody (Fab capture kit, GE Healthcare) was performed on a CM5 chip at pH 5.0 using the standard amine coupling kit (GE Healthcare). Anti-FolR1 IgGs or T cell bispecifics were captured at 20 nM with a flow rate of 10 μl/min for 20 or 40 sec, the reference flow cell was left without capture. Dilution series (6.17 to 500 nM or 12.35 to 3000 nM) of human or cyno Folate Receptor 1 Fc fusion were passed on all flow cells at 30 μl/min for 120 or 240 sec to record the association phase. The dissociation phase was monitored for 240 s and triggered by switching from the sample solution to HBS-EP. The chip surface was regenerated after every cycle using a double injection of 60 sec 10 mM Glycine-HCl pH 2.1 or pH 1.5. Bulk refractive index differences were corrected for by subtracting the response obtained on the reference flow cell 1. The affinity constants for the interactions were derived from the rate constants by fitting to a 1:1 Langmuir binding using the Bia Evaluation software (GE Healthcare).

[5] = system: cyno Folate Receptor 1 Fc fusion; conditions: monovalent binding (affinity), analyte cyFolR1
Experimental: as §1, §2

[6] = system: cynomolgus Folate Receptor 1 (FolR1-Fc); conditions: bivalent binding (avidity), ligand cyFolR1
Experimental: as §1
The avidity of the interaction between the anti-FolR1 IgGs or T cell bispecifics and the recombinant folate receptors was determined as described below (Table 9). Recombinant biotinylated monomeric Fc fusions of human, cynomolgus and murine Folate Receptor 1 (FolR1-Fc) were directly coupled on a SA chip using the standard coupling instruction (Biacore, Freiburg/Germany). The immobilization level was about 300-400 RU. The anti-FolR1 IgGs or T cell bispecifics were passed at a concentration range from 2.1 to 500 nM with a flow of 30 μL/minutes through the flow cells over 180 seconds. The dissociation was monitored for 600 seconds. […] The binding curves resulting from the bivalent binding of the IgGs or T cell bispecifics were approximated to a 1:1 Langmuir binding and fitted with that model (which is not correct, but gives an idea of the avidity). The apparent avidity constants for the interactions were derived from the rate constants of the fitting using the Bia Evaluation software (GE Healthcare).

[7] = molecular target: human FolR2 (Homo sapiens, UniProt P14207); conditions: IgG injected for 60 seconds at 500 nM
Experimental: as §1
(§3) First the anti-FolR1 IgGs were analyzed by single injections (Table 1) to characterize their crossreactivity (to human, murine and cyno FolR1) and specificity (to human FolR1, human FolR2, human FolR3). Recombinant biotinylated monomeric Fc fusions of human, cynomolgus and murine Folate Receptor 1 (FolR1-Fc) or human Folate Receptor 2 and 3 (FolR2-Fc, FolR3-Fc) were directly coupled on a SA chip using the standard coupling instruction (Biacore, Freiburg/Germany). The immobilization level was about 300-400 RU. The IgGs were injected for 60 seconds at a concentration of 500 nM.

[8] = system: cynomolgus FolR1; conditions: IgG injected for 60 seconds at 500 nM
Experimental: as §1, §3

[9] = molecular target: murine FolR1 (Mus musculus, UniProt P35846); conditions: IgG injected for 60 seconds at 500 nM
Experimental: as §1, §3

[10] = molecular target: human FolR1 (Homo sapiens, UniProt P15328); conditions: IgG injected for 60 seconds at 500 nM
Experimental: as §1, §3

[11] = molecular target: human FolR3 (Homo sapiens, UniProt P41439); conditions: IgG injected for 60 seconds at 500 nM
Experimental: as §1, §3

B1: Mov19: reference molecule, the human FolR1 binder Mov19 (IgG) (antibody, V domains shown)
VH: QVQLQQSGAELVKPGASVKISCKASGYSFTGYFMNWVKQSHGKSLEWIGRIHPYDGDTFYNQNFKDKATLTVDKSSNTAHMELLSLTSEDFAVYYCTRYDGSRAMDYWGQGTTVTVSS
VL: DIELTQSPASLAVSLGQRAIISCKASQSVSFAGTSLMHWYHQKPGQQPKLLIYRASNLEAGVPTRFSGSGSKTDFTLNIHPVEEEDAATYYCQQSREYPYTFGGGTKLEIK
[1]
  binding to erythrocytes: could not observe any specific binding
[2]
  binding of analyte in solution 9D11 TCB to huFolR1 captured on the immobilized binder: +/−
  binding of analyte in solution 16D5 TCB to huFolR1 captured on the immobilized binder: +
  binding of analyte in solution 21A5 TCB to huFolR1 captured on the immobilized binder: +
  binding of analyte in solution 36F2 IgG to huFolR1 captured on the immobilized binder: −
  binding of analyte in solution Farletuzumab to huFolR1 captured on the immobilized binder: −
  binding of analyte in solution Mov19 IgG to huFolR1 captured on the immobilized binder: −
[3]
  ka: 861000 M⁻¹ s⁻¹
  kd: 0.000121 s⁻¹
[4]
  ka: 289000 M⁻¹ s⁻¹
  kd: 0.000159 s⁻¹
[5]
  ka: 297000 M⁻¹ s⁻¹
  kd: 0.000193 s⁻¹
[6]
  ka: 1.29e+06 M⁻¹ s⁻¹
  kd: 0.000139 s⁻¹
[7]
  Binding to huFolR2: −
[8]
  Binding to cyFolR1: +
[9]
  Binding to muFolR1: −
[10]
  Binding to huFolR1: +
[11]
  Binding to huFolR3: −
